Results as given in US20210403578A1 (Stanford University, published 2021).

Biological target: T1, Fz8-CRD (UniProt Q9H461 32-151, limits assumed, fluorescence-conjugated)
T1 construct: domain: CRD; also called Fzd8-CRD; frizzled (Fz8-CRD)
T1 sequence (looked up): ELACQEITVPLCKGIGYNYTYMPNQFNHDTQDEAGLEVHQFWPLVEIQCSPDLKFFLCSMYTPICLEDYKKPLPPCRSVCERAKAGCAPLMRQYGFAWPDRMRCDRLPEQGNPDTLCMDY
Experiment: yeast surface display with fluorescence-conjugated Fz8-CRD
Description: Fz27 was expressed in a construct enabling binding to be confirmed via yeast surface display using fluorescence-conjugated Fz8-CRD.

binding result: no binding
B1: uncharacterized protein Bh1478 from Bacillus halodurans (other)
chain: MDVQRVGKAGLHRVDSKKQQTAAGVSFSEVMGKQRDEKAYERLQALMSKIDDQGKLLSETRTIEELRKYKELVKEFVGDAVELGLRLEERRGFNRRGRTKIYKIVKEVDRKLLDLTDAVLAKEKKGLDILNMVGEIKGLLINIYA
notes: also called 2QUP; wild-type scaffold
